Patent US20250066503A1, “CELL INJURY INDUCING THERAPEUTIC DRUG FOR USE IN CANCER THERAPY” (CHUGAI SEIYAKU KABUSHIKI KAISHA, priority 2016, published 2025)

Target: T1, soluble human CD3 epsilon chain (human, UniProt P07766 23-126)
T1 construct: also called CD3ε
Experiment: SPR

T1 sequence (P07766 23-126 limits assumed): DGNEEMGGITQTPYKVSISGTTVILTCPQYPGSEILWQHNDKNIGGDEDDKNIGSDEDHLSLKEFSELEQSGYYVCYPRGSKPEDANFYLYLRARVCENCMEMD

| Binder | Kd |
| --- | --- |
| TR01H040-E22Hh/none-Hi-Kn010G3/TR01L011-k0 (antibody, V domains shown, one-arm) VH: QVQLVESGGGLVQPGRSLRLSCAASGFTFSNAWMHWVRQAPGKGLEWVAQIKDKSQNYATYYAESVKGRFTISRADSKNSIYLQMNSLKTEDTAVYYCRYVHYSASYGVDAWGQGTTVTVSS VL: DIVMTQSPLSLPVTPGEPASISCQASESLVHSNRNTYLHWYQQKPGQAPRLLIYKVSNRFRGVPDRFSGSGSGTDFTLKISRVEAEDVGVYYCGQGTQVPYTFGQGTKVEIE | 35.7 nM |
| TR01H040-E22Hh/none-Hi-Kn010G3/L0000vk1-k0 (antibody, V domains shown, one-arm) VH: QVQLVESGGGLVQPGRSLRLSCAASGFTFSNAWMHWVRQAPGKGLEWVAQIKDKSQNYATYYAESVKGRFTISRADSKNSIYLQMNSLKTEDTAVYYCRYVHYSASYGVDAWGQGTTVTVSS VL: DIQMTQSPSSLSASVGDRVTITCRSSQSLVHSNRNTYLHWYQQKPGKAPKLLIYKVSNRFSGVPSRFSGSGSGTDFTFTISSLQPEDIATYYCGQGTQVPYTFGQGTKVEIK | 46.9 nM |
| TR01H082-E22Hh/none-Hi-Kn010G3/TR01L024-k0 (antibody, V domains shown, one-arm) VH: QVQLVESGGGLVQPGRSLRLSCAASGFTFSNAWMHWVRQAPGKGLEWVAQIKDKSQNYATYYAESVKGRFTISRDDSKNSLYLQMNSLKTEDTAVYYCRYVHYAAGYGVDAWGQGTTVTVSS VL: DIVMTQSPLSLPVTPGEPASISCQASESPVHSNRNTYLHWYLQKPGQSPQLLIYKVSNRFSGVPDRFSGSGSGTDFTLKISRVEAEDVGVYYCTQGTQVPYTFGQGTKLEIK | 47.6 nM |
| TR01H040-E22Hh/none-Hi-Kn010G3/TR01L018-k0 (antibody, V domains shown, one-arm) VH: QVQLVESGGGLVQPGRSLRLSCAASGFTFSNAWMHWVRQAPGKGLEWVAQIKDKSQNYATYYAESVKGRFTISRADSKNSIYLQMNSLKTEDTAVYYCRYVHYSASYGVDAWGQGTTVTVSS VL: DIVMTQSPLSLPVTPGEPASISCQASESPVHSNRNTYLHWYLQKPGQSPQLLIYKVSNRFSGVPDRFSGSGSGTDFTLKISRVEAEDVGVYYCGQGTQVPYTFGQGTKLEIK | 45.1 nM |
| rCE115H-G1dh//-Hi-Kn010G3/L0000-k0 (antibody, V domains shown, one-arm) VH: EVQLVETGGSLVQPGKSLKLTCATSGFTFSNAWMHWVRQSPEKQLEWVAQIKAKSNNYATYYAESVKGRFTISRDDSKSNIYLQMNSLKEEDTAVYYCRYVHYGAYYGVDAWGQGTSVTVSS VL: DIVMTQSPLSLPVTPGEPASISCRSSQSLVHSNRNTYLHWYQQKPGQAPRLLIYKVSNRFSGVPDRFSGSGSGTDFTLKISRVEAEDVGVYYCGQGTQVPYTFGQGTKLEIKR | 57.6 nM |
| TR01H015-E22Hh/none-Hi-Kn010G3/L0000-k0 (antibody, human IgG1, kappa, L234A L235A, N297A, one-arm) heavy: QVQLVESGGGLVQPGRSLRLSCAASGFTFSNAWMHWVRQAPGKGLEWVAQIKGKSNNYATYYAESVKGRFTISRADSKNSIYLQMNSLKTEDTAVYYCRYVHYSASYGVDIWGQGTTVTVSSASTKGPSVFPLAPSSKSTSGGTAALGCLVKDYFPEPVTVSWNSGALTSGVHTFPAVLQSSGLYSLSSVVTVPSSSLGTQTYICNVNHKPSNTKVDKKVEPKSCDKTHTCPPCPAPEAAGGPSVFLFPPKPKDTLMISRTPEVTCVVVDVSHEDPEVKFNWYVDGVEVHNAKTKPREEQYASTYRVVSVLTVLHQDWLNGKEYKCKVSNKALPAPIEKTISKAKGQPREPQVYTLPPSRCELTKNQVSLSCAVKGFYPSDIAVEWESNGQPENNYKTTPPVLDSDGSFFLVSKLTVDKSRWQQGNVFSCSVMHEALHNHYTQKSLSLSPDYKDDDDK light: DIVMTQSPLSLPVTPGEPASISCRSSQSLVHSNRNTYLHWYQQKPGQAPRLLIYKVSNRFSGVPDRFSGSGSGTDFTLKISRVEAEDVGVYYCGQGTQVPYTFGQGTKLEIKRTVAAPSVFIFPPSDEQLKSGTASVVCLLNNFYPREAKVQWKVDNALQSGNSQESVTEQDSKDSTYSLSSTLTLSKADYEKHKVYACEVTHQGLSSPVTKSFNRGEC | 61.3 nM |
| CE115HA251-E22Hh/L0000-k0/GL4-E22Hk/H0000-E22L (bispecific antibody, human IgG1, kappa, L234A L235A, N297A, ERY22 format) heavy: QVQLVESGGGVVQPGRSLRLSCAASGFTFSNAWMHWVRQAPGKGLEWVAQIKAKSNNYATYYAESVKGRFTISRDDSKNSLYLQMNSLKTEDTAVYYCRYVHYYYYYGVDAWGQGTTVTVSSASTKGPSVFPLAPSSKSTSGGTAALGCLVKDYFPEPVTVSWNSGALTSGVHTFPAVLQSSGLYSLSSVVTVPSSSLGTQTYICNVNHKPSNTKVDKKVEPKSCDKTHTCPPCPAPEAAGGPSVFLFPPKPKDTLMISRTPEVTCVVVDVSHEDPEVKFNWYVDGVEVHNAKTKPREEQYASTYRVVSVLTVLHQDWLNGKEYKCKVSNKALPAPIEKTISKAKGQPREPQVYTLPPSRCELTKNQVSLSCAVKGFYPSDIAVEWESNGQPENNYKTTPPVLDSDGSFFLVSKLTVDKSRWQQGNVFSCSVMHEALHNHYTQKSLSLSPDYKDDDDK light: DIVMTQSPLSLPVTPGEPASISCRSSQSLVHSNRNTYLHWYQQKPGQAPRLLIYKVSNRFSGVPDRFSGSGSGTDFTLKISRVEAEDVGVYYCGQGTQVPYTFGQGTKLEIKRTVAAPSVFIFPPSDEQLKSGTASVVCLLNNFYPREAKVQWKVDNALQSGNSQESVTEQDSKDSTYSLSSTLTLSKADYEKHKVYACEVTHQGLSSPVTKSFNRGEC chain 1: DIVMTQSPLSLPVTPGEPASISCRSSQSLVHSNRNTYLHWYQQKPGQAPRLLIYKVSNRFSGVPDRFSGSGSGTDFTLKISRVEAEDVGVYYCSQNTHVPPTFGQGTKLEIKSSASTKGPSVFPLAPSSKSTSGGTAALGCLVKDYFPEPVTVSWNSGALTSGVHTFPAVLQSSGLYSLSSVVTVPSSSLGTQTYICNVNHKPSNTKVDKKVEPKSCDKTHTCPPCPAPEAAGGPSVFLFPPKPKDTLMISRTPEVTCVVVDVSHEDPEVKFNWYVDGVEVHNAKTKPREEQYASTYRVVSVLTVLHQDWLNGKEYKCKVSNKALPAPIEKTISKAKGQPREPQVCTLPPSRDELTKNQVSLWCLVKGFYPSDIAVEWESNGQPENNYKTTPPVLDSDGSFFLYSKLTVDKSRWQQGNVFSCSVMHEALHNHYTQKSLSLSPHHHHHHHH chain 2: QVQLVQSGAEVKKPGASVKVSCKASGYTFTDYEMHWIRQPPGQGLEWIGAIDPKTGDTAYSQKFKGRVTLTADKSTSTAYMELSSLTSEDTAVYYCTRFYSYTYWGQGTLVTVSSASVAAPSVFIFPPSDEQLKSGTASVVCLLNNFYPREAKVQWKVDNALQSGNSQESVTEQDSKDSTYSLSSTLTLSKADYEKHKVYACEVTHQGLSSPVTKSFNRGEC | 14.8 nM |
| CE115HA236-E22Hh/GLS3108-k0/GL4-E22Hk/H0000-E22L (bispecific antibody, human IgG1, kappa, L234A L235A, N297A, ERY22 format) heavy: QVQLVESGGGVVQPGRSLRLSCAASGFTFSNAWMHWVRQAPGKGLEWVAQIKAKSNNYATYYAESVKGRFTISRDDSKNSLYLQMNSLKTEDTAVYYCRYVHYYAYYGVQAWGQGTTVTVSSASTKGPSVFPLAPSSKSTSGGTAALGCLVKDYFPEPVTVSWNSGALTSGVHTFPAVLQSSGLYSLSSVVTVPSSSLGTQTYICNVNHKPSNTKVDKKVEPKSCDKTHTCPPCPAPEAAGGPSVFLFPPKPKDTLMISRTPEVTCVVVDVSHEDPEVKFNWYVDGVEVHNAKTKPREEQYASTYRVVSVLTVLHQDWLNGKEYKCKVSNKALPAPIEKTISKAKGQPREPQVYTLPPSRCELTKNQVSLSCAVKGFYPSDIAVEWESNGQPENNYKTTPPVLDSDGSFFLVSKLTVDKSRWQQGNVFSCSVMHEALHNHYTQKSLSLSPDYKDDDDK light: DIVMTQSPLSLPVTPGEPASISCRSSQSLVHSNRNTYLSWYQQKPGQAPRLLIYKVSNRFSGVPDRFSGSGSGTDFTLKISRVEAEDVGVYYCGQGTQVPYTFGQGTKLEIKRTVAAPSVFIFPPSDEQLKSGTASVVCLLNNFYPREAKVQWKVDNALQSGNSQESVTEQDSKDSTYSLSSTLTLSKADYEKHKVYACEVTHQGLSSPVTKSFNRGEC chain 1: DIVMTQSPLSLPVTPGEPASISCRSSQSLVHSNRNTYLHWYQQKPGQAPRLLIYKVSNRFSGVPDRFSGSGSGTDFTLKISRVEAEDVGVYYCSQNTHVPPTFGQGTKLEIKSSASTKGPSVFPLAPSSKSTSGGTAALGCLVKDYFPEPVTVSWNSGALTSGVHTFPAVLQSSGLYSLSSVVTVPSSSLGTQTYICNVNHKPSNTKVDKKVEPKSCDKTHTCPPCPAPEAAGGPSVFLFPPKPKDTLMISRTPEVTCVVVDVSHEDPEVKFNWYVDGVEVHNAKTKPREEQYASTYRVVSVLTVLHQDWLNGKEYKCKVSNKALPAPIEKTISKAKGQPREPQVCTLPPSRDELTKNQVSLWCLVKGFYPSDIAVEWESNGQPENNYKTTPPVLDSDGSFFLYSKLTVDKSRWQQGNVFSCSVMHEALHNHYTQKSLSLSPHHHHHHHH chain 2: QVQLVQSGAEVKKPGASVKVSCKASGYTFTDYEMHWIRQPPGQGLEWIGAIDPKTGDTAYSQKFKGRVTLTADKSTSTAYMELSSLTSEDTAVYYCTRFYSYTYWGQGTLVTVSSASVAAPSVFIFPPSDEQLKSGTASVVCLLNNFYPREAKVQWKVDNALQSGNSQESVTEQDSKDSTYSLSSTLTLSKADYEKHKVYACEVTHQGLSSPVTKSFNRGEC | 6.95 nM |
| TR01H002-E22Hh/GLS3108-k0/GL4-E22Hk/H0000-E22L (bispecific antibody, human IgG1, kappa, L234A L235A, N297A, ERY22 format) heavy: QVQLVESGGGVVQPGRSLRLSCAASGFTFSNAWMHWVRQAPGKGLEWVAQIKAKSNNYKKYYAESVKGRFTISRDDSKNSLYLQMNSLKTEDTAVYYCRYVHYYYYYGVQAWGQGTTVTVSSASTKGPSVFPLAPSSKSTSGGTAALGCLVKDYFPEPVTVSWNSGALTSGVHTFPAVLQSSGLYSLSSVVTVPSSSLGTQTYICNVNHKPSNTKVDKKVEPKSCDKTHTCPPCPAPEAAGGPSVFLFPPKPKDTLMISRTPEVTCVVVDVSHEDPEVKFNWYVDGVEVHNAKTKPREEQYASTYRVVSVLTVLHQDWLNGKEYKCKVSNKALPAPIEKTISKAKGQPREPQVYTLPPSRCELTKNQVSLSCAVKGFYPSDIAVEWESNGQPENNYKTTPPVLDSDGSFFLVSKLTVDKSRWQQGNVFSCSVMHEALHNHYTQKSLSLSPDYKDDDDK light: DIVMTQSPLSLPVTPGEPASISCRSSQSLVHSNRNTYLSWYQQKPGQAPRLLIYKVSNRFSGVPDRFSGSGSGTDFTLKISRVEAEDVGVYYCGQGTQVPYTFGQGTKLEIKRTVAAPSVFIFPPSDEQLKSGTASVVCLLNNFYPREAKVQWKVDNALQSGNSQESVTEQDSKDSTYSLSSTLTLSKADYEKHKVYACEVTHQGLSSPVTKSFNRGEC chain 1: DIVMTQSPLSLPVTPGEPASISCRSSQSLVHSNRNTYLHWYQQKPGQAPRLLIYKVSNRFSGVPDRFSGSGSGTDFTLKISRVEAEDVGVYYCSQNTHVPPTFGQGTKLEIKSSASTKGPSVFPLAPSSKSTSGGTAALGCLVKDYFPEPVTVSWNSGALTSGVHTFPAVLQSSGLYSLSSVVTVPSSSLGTQTYICNVNHKPSNTKVDKKVEPKSCDKTHTCPPCPAPEAAGGPSVFLFPPKPKDTLMISRTPEVTCVVVDVSHEDPEVKFNWYVDGVEVHNAKTKPREEQYASTYRVVSVLTVLHQDWLNGKEYKCKVSNKALPAPIEKTISKAKGQPREPQVCTLPPSRDELTKNQVSLWCLVKGFYPSDIAVEWESNGQPENNYKTTPPVLDSDGSFFLYSKLTVDKSRWQQGNVFSCSVMHEALHNHYTQKSLSLSPHHHHHHHH chain 2: QVQLVQSGAEVKKPGASVKVSCKASGYTFTDYEMHWIRQPPGQGLEWIGAIDPKTGDTAYSQKFKGRVTLTADKSTSTAYMELSSLTSEDTAVYYCTRFYSYTYWGQGTLVTVSSASVAAPSVFIFPPSDEQLKSGTASVVCLLNNFYPREAKVQWKVDNALQSGNSQESVTEQDSKDSTYSLSSTLTLSKADYEKHKVYACEVTHQGLSSPVTKSFNRGEC | 4.78 nM |
